Article PMC9505826, “A Peptide Inhibitor of the Human Cytomegalovirus Core Nuclear Egress Complex” (Pharmaceuticals, 2022)

Target: recombinant HCMV pUL50 (His-tagged) (human cytomegalovirus (HCMV)) (UniProt P16791)
Assay: ELISA; competition: pUL53 (1 µg/mL) coated on Immulon plates; peptide in serial dilutions from 10 µM together with His-tagged pUL50 (0.78 µg/mL) for 2.5 h; detection with anti-His-HRP; 0.1 M phosphate buffer pH 7.2, 0.1% BSA, 0.01% Tween 20

NLS-CPP (acetylated; pUL53 NLS 18-27 joined to HIV-1 Tat 47-59) (peptide)
IC50: > 10 µM
